These results are taken from PMC4716839.

For data set [1], the system named is Dna2 D278A (nuclease-dead) (Mus musculus). Put plainly: bead pull-down. The note with it: DNA preloaded with Rpa, EMSA: 20 mM Tris-HCl pH 8.0, 80 mM NaCl, 0.3 mM TCEP, 0.2 mg/mL BSA, 2% glycerol, on ice 30 min, 0.075 or 0.3 nM 32P-DNA, 4% native PAGE, 1x TB, 4 C, scale: % Dna2 loading relative to reaction lacking Rpa. In general terms: In EMSA bound probe runs differently from free probe, usually more slowly.

The test system is the same in data set [2]. Put plainly: EMSA. Conditions: Kd only in figure; EMSA: 20 mM Tris-HCl pH 8.0, 80 mM NaCl, 0.3 mM TCEP, 0.2 mg/mL BSA, 2% glycerol, on ice 30 min, 0.075 or 0.3 nM 32P-DNA; 4% native PAGE, 1x TB, 4 C; scale: affinity relative to 5'(dT)24.

As to 3'-(dT)26 overhang DNA, biotinylated, the binding signal in data set [1] (negligible loading) amounted to 3.
The substance 5'(dT)6 overhang DNA displayed a binding signal in data set [2] of 0.01.
5'(dT)8 overhang DNA yielded a binding signal in data set [2] of 0.01.
As for 5'-(dT)26 overhang DNA, biotinylated, the binding signal in data set [1] is 45.
